Consider 6 variants from IntAct's records for PubMed 14675752.

Sequences and labels used below:
B1: Clathrin interactor 1 (Homo sapiens), Q14677 (parent)
chain: MLNMWKVRELVDKATNVVMNYSEIESKVREATNDDPWGPSGQLMGEIAKATFMYEQFPELMNMLWSRMLKDNKKNWRRVYKSLLLLAYLIRNGSERVVTSAREHIYDLRSLENYHFVDEHGKDQGINIRQKVKELVEFAQDDDRLREERKKAKKNKDKYVGVSSDSVGGFRYSERYDPEPKSKWDEEWDKNKSAFPFSDKLGELSDKIGSTIDDTISKFRRKDREDSPERCSDSDEEKKARRGRSPKGEFKDEEETVTTKHIHITQATETTTTRHKRTANPSKTIDLGAAAHYTGDKASPDQNASTHTPQSSVKTSVPSSKSSGDLVDLFDGTSQSTGGSADLFGGFADFGSAAASGSFPSQVTATSGNGDFGDWSAFNQAPSGPVASSGEFFGSASQPAVELVSGSQSALGPPPAASNSSDLFDLMGSSQATMTSSQSMNFSMMSTNTVGLGLPMSRSQNTDMVQKSVSKTLPSTWSDPSVNISLDNLLPGMQPSKPQQPSLNTMIQQQNMQQPMNVMTQSFGAVNLSSPSNMLPVRPQTNALIGGPMPMSMPNVMTGTMGMAPLGNTPMMNQSMMGMNMNIGMSAAGMGLTGTMGMGMPNIAMTSGTVQPKQDAFANFANFSK

In one assay the parent is B1. The settings on record: with ap1g1_mouse Ap1g1, P22892.
ap1g1_mouse Ap1g1, P22892, sequence (P22892 whole entry): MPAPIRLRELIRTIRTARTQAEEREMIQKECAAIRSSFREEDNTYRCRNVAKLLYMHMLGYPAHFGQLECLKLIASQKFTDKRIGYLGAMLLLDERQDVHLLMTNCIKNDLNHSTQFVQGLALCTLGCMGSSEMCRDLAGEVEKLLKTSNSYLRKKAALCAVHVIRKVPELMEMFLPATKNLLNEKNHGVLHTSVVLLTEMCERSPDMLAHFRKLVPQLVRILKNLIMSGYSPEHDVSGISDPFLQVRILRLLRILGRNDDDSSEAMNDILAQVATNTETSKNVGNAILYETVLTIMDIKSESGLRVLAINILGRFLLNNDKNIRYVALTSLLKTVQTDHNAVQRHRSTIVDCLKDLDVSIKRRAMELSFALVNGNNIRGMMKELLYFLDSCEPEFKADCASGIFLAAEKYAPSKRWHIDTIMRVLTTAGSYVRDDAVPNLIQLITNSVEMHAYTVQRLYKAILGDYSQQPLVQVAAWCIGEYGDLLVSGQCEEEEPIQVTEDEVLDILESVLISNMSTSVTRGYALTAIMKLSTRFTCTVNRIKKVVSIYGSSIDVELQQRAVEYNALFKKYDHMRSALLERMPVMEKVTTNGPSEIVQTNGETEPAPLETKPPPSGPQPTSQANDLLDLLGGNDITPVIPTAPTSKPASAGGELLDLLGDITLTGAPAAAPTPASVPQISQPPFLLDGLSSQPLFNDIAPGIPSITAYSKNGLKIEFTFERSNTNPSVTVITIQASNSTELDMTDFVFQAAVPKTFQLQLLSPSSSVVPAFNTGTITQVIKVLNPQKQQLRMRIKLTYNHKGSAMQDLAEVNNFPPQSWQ
Take W375A: the “effect of a mutation on the interaction” value is recorded as “decreasing interaction”.

The variants in another assay derive from B1. To be noted: with ap1g1_mouse Ap1g1, P22892. The source holds these as a separate data set.
In the case of D371A, the “effect of a mutation on the interaction” value is recorded as “decreasing interaction”.

Variants of B1 are the subject of another assay. To be noted: with ap1g1_mouse Ap1g1, P22892. This is another data set of the same source.
Turning to F372A, the “effect of a mutation on the interaction” value is listed as “decreasing interaction”.

A further assay covers variants of B1. To be noted: with ap1g1_mouse Ap1g1, P22892. This is another data set of the same source.
On to F378A, for which the “effect of a mutation on the interaction” value was “decreasing interaction”.

A further assay covers variants of B1. The settings on record: with ap1g1_mouse Ap1g1, P22892. This is another data set of the same source.
Take D374A: the “effect of a mutation on the interaction” value is recorded as “decreasing interaction”.

A further assay covers variants of B1. To be noted: with ap1g1_mouse Ap1g1, P22892. The source holds these as a separate data set.
With G373R, the “effect of a mutation on the interaction” value is reported as “decreasing interaction”.
